# Results reported in patent publication US9868768B2, “Hydrophobic modified pres-derived peptides of hepatitis B virus (HBV) and their use as vehicles for the specific delivery of compounds to the liver” (RUPRECHT-KARLS-UNIVERSITAT HEIDELBERG, priority 2008, dated 2018).
# “Also recorded” adds a separate entry of the source.
# Legend:
# [1] = test system: primary human hepatocytes (PHH); assay: Immunofluorescence binding to primary human hepatocytes; type: cell-based; conditions: 400 nM peptide for 4 hours, confocal immunofluorescence
# Description: Primary human hepatocytes (PHH) were incubated with or without 400 nM peptide for 4 hours:
# (§1) Primary hepatocytes grown on cover slips were incubated with the respective peptide at 200 nM in serum-free cell culture medium. After 1 hour incubation at 37° C. cells were fixed and nuclei were stained with DAPI. Fluorescence microscopy was performed on a Spinning Disk Confocal Microscope at 600× magnification.
# HepaRG cells = assay: Immunofluorescence binding to HepaRG cells; type: cell-based; conditions: 400 nM peptide, 4 hours at 37° C.
# Description: (§2) Cells were incubated with or without 400 nM peptide for 4 hours at 37° C.:
# HepaRG cells were grown in William's E medium supplemented with 10% fetal calf serum (FCS), 100 units/ml penicillin, 100 μg/ml streptomycin, 5 μg/ml insulin and 5×10^−5 M hydrocortisone hemisuccinate (10). Cells were passaged 1/5 every two weeks by trypsination. Two to three weeks before infection cell differentiation was induced by adding 2% DMSO into the maintenance medium. The medium was exchanged every 2-3 days.
# as §1
# [2] = test system: Primary mouse hepatocytes (PMH); assay: Immunofluorescence binding to primary mouse hepatocytes; type: cell-based; conditions: 400 nM peptide, 4 hours at 37° C.; for Binding to primary mouse hepatocytes (PMH): differentiated PMH
# Description: as §2
# […] After 1 hour incubation at 37° C. cells were fixed and nuclei were stained with DAPI. Fluorescence microscopy was performed on a Spinning Disk Confocal Microscope at 600× magnification.
# [3] = test system: Primary mouse hepatocytes (PMH); assay: FACS analysis of binding to primary mouse hepatocytes; type: cell-based; conditions: 200 nM, 30 minutes at room temperature
# Description: Cryo-preserved primary hepatocytes were thawed and washed with serum-free medium. In each reaction 4×10^5 cells/ml were incubated with the respective peptide at a concentration of 200 nM in serum-free cell culture medium. The staining was performed for 30 minutes at room temperature with frequent mixing. Subsequently, cells were washed extensively and resuspended in PBS to proceed with the FACS analysis.
# [4] = Biodistribution of 131I-labelled peptides after subcutaneous injection in NMRI mice; type: in vivo, male NMRI mice; conditions: 2.25 μg 131I-labeled peptide s.c., 10 min, 1 h, 4 h and 24 h post injection
# Description: Per time point 2.25 μg of ^131I-labeled HBVpreS/2-48^myr(D) were subcutaneously injected into NMRI mice (N=3). 10 min, 1 h, 4 h and 24 h post injection animals were sacrificed and the organ-specific (blood, lung, heart, spleen, liver, kidney and muscle) peptide accumulations (% ID/g) were determined.
# The biodistribution of the hydrophobic modified preS-derived peptides was studied in male NMRI mice. All experiments were performed in compliance with German laws. The peptides, containing an additional Tyr-residue at the C-terminal end were labelled with ^131I (Amersham Biosciences, Freiburg, Germany) by the chloramine-T method and purified by HPLC. The labelled peptides were subcutaneously administered by injection of a solution in 50% DMSO. At selected times mice were sacrificed and the radioactivity contained in the blood, heart, lung, spleen, liver, kidney, muscle and brain was measured in a γ-counter (Canberra Packard, Rüsselsheim, Germany) and expressed as a percentage of injected dose per gram of tissue (% ID/g).
# [5] = Biodistribution after subcutaneous application in uPA+/−/RAG-2−/−Pfp−/− mice; type: in vivo; conditions: 2.25 μg 131I-labeled peptide s.c., 10 min to 24 h
# [6] = Stability assessment of peptide after extraction from the liver (reversed phase HPLC); type: in vivo, uPA+/−/RAG-2−/−Pfp−/− mice; conditions: liver extracts 24 h post subcutaneous injection, 131I-labelled
# Description: Per animal approximately 2.25 μg of the ^131I-labelled peptides were subcutaneously injected. At the indicated time points animals were sacrificed and the liver specific peptide accumulation (% ID/g) was determined. (B) Reversed phase HPLC of pure ^131I-labelled HBVpreS/2-48^myr(D) (brown curve) in comparison to liver extracts (orange curve) obtained 24 h post subcutaneous injection into uPA+/−/RAG-2−/−Pfp−/− mice of the same peptide. Note that 50% of detectable activity is eluting at fraction 13. Since the hydrophobic myristoyl residue is located at the N-terminus and the iodinated Tyr-residue at the C-terminus fraction 13 represents the unaltered full-length peptide.
# To determine the peptide stability in the liver 131I labelled HBVpreS/2-48^myr (D) was extracted from one liver lobe 24 h post subcutaneous injection. To that aim, 1 ml water per gram frozen liver tissue was added to the sample. After homogenization an equal volume of acetonitrile was added and the homogenization was repeated. After centrifugation (2×10 min at 4000×g) this solution was separated on a reverse phase HPLC column and the radioactivity of each fraction was quantified in a gamma counter.
Substance,Binding to primary human hepatocytes (PHH) [1],Binding to differentiated HepaRG cells (HepaRG cells),Binding to undifferentiated HepaRG cells (HepaRG cells; undifferentiated cells),Binding to de-differentiated primary mouse hepatocytes (PMH) ([2]; de-differentiated PMH),Binding to primary mouse hepatocytes (PMH) [2],"Binding to primary mouse hepatocytes (PMH), FACS analysis [3]",organ-specific peptide accumulation (biodistribution) [4],organ-specific peptide accumulation (biodistribution) [5],detectable activity eluting at fraction 13 (unaltered full-length peptide) in liver extract [6] [%]
"wt myr-FITC: HBVpreS/2-48 myr (C) with lysine at the C-terminus [SEQ ID NO. 39], labelled with FITC",only in B binding of the peptide to the cells can be seen,Only wt myr-FITC binds to the cells; also recorded: binds only to differentiated cells,binds only to differentiated cells,binds only to differentiated cells,Only wt myr-FITC binds to the cells; also recorded: binds only to differentiated cells,Only wt myr-FITC binds to the cells,–,–,–
mut myr-FITC: HBVpreS/2-48 myr (C)-FITC with D-Leu and D-Phe at positions L11 and F13 [reference compound],only in B binding of the peptide to the cells can be seen,Only wt myr-FITC binds to the cells,–,–,Only wt myr-FITC binds to the cells,Only wt myr-FITC binds to the cells,–,–,–
wt myr(−)-FITC: HBVpreS/2-48(C)-FITC without myristoylation [reference compound],only in B binding of the peptide to the cells can be seen,Only wt myr-FITC binds to the cells,–,–,Only wt myr-FITC binds to the cells,–,–,–,–
"HBVpreS/2-48^myr(D): SEQ ID NO. 23, genotype D residues 2-48, N-terminus myristoylated",–,–,–,–,–,–,most of the peptide accumulates in the liver,most of the peptide accumulates in the liver,50
